These results are taken from patent US20210032299A1 (Eli Lilly, published 2021).

Starred links: 1 amine or outer side, 2 acyl side, 3 side chain; linkers in the order of their positions; H or OH if unused. Non-standard residues stand in square brackets, D forms with d. Groups on a side chain read outwards from the residue. No end group written: not given here. *: point of attachment. C20 diacid = O=C(O)CCCCCCCCCCCCCCCCCCC(=O)*; C18 diacid = O=C(O)CCCCCCCCCCCCCCCCC(=O)*; γGlu = O=C(O)[C@H](CCC(=O)[*:2])N[*:1]; 4Pal = N[C@@H](Cc1ccncc1)C(=O)O; αMeL = CC(C)C[C@](C)(N)C(=O)O; Orn = NCCC[C@H](N)C(=O)O; AEEA = NCCOCCOCC(=O)O; Aib = CC(C)(N)C(=O)O

The target of test [1] is T1, human glucose-dependent insulinotropic polypeptide (GIP) receptor (human, UniProt P48546 22-466).
T1 construct: whole, on cells; Assayed as crude membranes of stably transfected CHO cells; also called hGIPR; human GIP receptor
T1 sequence (looked up): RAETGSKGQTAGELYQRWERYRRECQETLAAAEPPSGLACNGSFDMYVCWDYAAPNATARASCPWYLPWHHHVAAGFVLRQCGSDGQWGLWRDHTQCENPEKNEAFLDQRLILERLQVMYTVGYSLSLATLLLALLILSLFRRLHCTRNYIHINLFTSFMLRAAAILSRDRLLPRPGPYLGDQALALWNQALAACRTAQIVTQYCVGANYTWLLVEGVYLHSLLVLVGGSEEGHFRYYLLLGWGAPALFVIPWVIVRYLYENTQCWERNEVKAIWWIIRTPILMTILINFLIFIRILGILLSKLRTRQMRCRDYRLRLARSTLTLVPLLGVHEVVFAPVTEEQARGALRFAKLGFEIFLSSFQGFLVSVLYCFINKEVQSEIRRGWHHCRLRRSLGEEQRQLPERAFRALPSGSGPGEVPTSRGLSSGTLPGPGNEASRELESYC
Nature of the test: SPA, displacement of [125I]-GIP from hGIPR membranes, 0.1% bacitracin. The method, then:
The binding buffer contains 25 mM HEPES, pH 7.4, 2.5 mM CaCl₂, 1 mM MgCl₂, 0.1% (w/v) bacitracin, 0.003% (w/v) TWEEN®-20, and Roche Complete™ Protease Inhibitors without EDTA. […] Plates are sealed and mixed on a plate shaker (setting 6) for 1 minute and read with a PerkinElmer Trilux MicroBeta® scintillation counter after 2.5 to 12 hours of incubation/settling time at room temperature.
(§1) Data are analyzed using four-parameter (curve maximum, curve minimum, […], Hill slope) nonlinear regression routines (Genedata Screener, version 12.0.4, Genedata AG, Basal, Switzerland). […] Values for Kᵢ are reported as the geometric mean, with error expressed as the standard error of the mean (SEM) and n is equal to the number of independent replicates (determined in assays performed on different days). Geometric Means are calculated as follows: […]

Test [2] has as its target T2, human GLP-1 receptor (human, UniProt P43220 24-463).
T2 construct: whole, on cells; Assayed as crude membranes of stably transfected HEK293 cells; also called hGLP1R; hGLP-1R
Description: SPA, displacement of [125I]-GLP-1 from hGLP-1R membranes, 0.1% bacitracin. The method, then: The binding buffer contains 25 mM HEPES, pH 7.4, 2.5 mM CaCl₂, 1 mM MgCl₂, 0.1% (w/v) bacitracin, 0.003% (w/v) TWEEN®-20, and Roche Complete™ Protease Inhibitors without EDTA.
as §1

B1: Example 92 (peptide)
peptide: Y[Aib]EGTFISDYSI[αMeL]LDKIHQ[Aib]DFVEYK([AEEA-AEEA-γGlu-C20 diacid])LEQGPSSGAPPPS-NH2
modifications: N-terminus assumed
SMILES: CC[C@H](C)[C@H](NC(=O)[C@H](CCCCN)NC(=O)[C@H](CC(=O)O)NC(=O)[C@H](CC(C)C)NC(=O)[C@](C)(CC(C)C)NC(=O)[C@@H](NC(=O)[C@H](CO)NC(=O)[C@H](Cc1ccc(O)cc1)NC(=O)[C@H](CC(=O)O)NC(=O)[C@H](CO)NC(=O)[C@@H](NC(=O)[C@H](Cc1ccccc1)NC(=O)[C@@H](NC(=O)CNC(=O)[C@H](CCC(=O)O)NC(=O)C(C)(C)NC(=O)[C@@H](N)Cc1ccc(O)cc1)[C@@H](C)O)[C@@H](C)CC)[C@@H](C)CC)C(=O)N[C@@H](Cc1c[nH]cn1)C(=O)N[C@@H](CCC(N)=O)C(=O)NC(C)(C)C(=O)N[C@@H](CC(=O)O)C(=O)N[C@@H](Cc1ccccc1)C(=O)N[C@H](C(=O)N[C@@H](CCC(=O)O)C(=O)N[C@@H](Cc1ccc(O)cc1)C(=O)N[C@@H](CCCCNC(=O)COCCOCCNC(=O)COCCOCCNC(=O)CC[C@H](NC(=O)CCCCCCCCCCCCCCCCCCC(=O)O)C(=O)O)C(=O)N[C@@H](CC(C)C)C(=O)N[C@@H](CCC(=O)O)C(=O)N[C@@H](CCC(N)=O)C(=O)NCC(=O)N1CCC[C@H]1C(=O)N[C@@H](CO)C(=O)N[C@@H](CO)C(=O)NCC(=O)N[C@@H](C)C(=O)N1CCC[C@H]1C(=O)N1CCC[C@H]1C(=O)N1CCC[C@H]1C(=O)N[C@@H](CO)C(N)=O)C(C)C
In the case of B1, in test [1], affinity was put at a Ki of 0.0331 nM.

B2: Example 75 (peptide)
peptide: YXEGTXISDYSIXLDKKHQXDFVEXLLETGPSSGAPPPS
modifications: Aib2; Iva6; αMeL13; K17((2-[2-(2-Amino-ethoxy)-ethoxy]-acetyl)2-(γ-Glu)-CO-(CH2)18-CO2H); Aib20; 4-Pal25; C-terminal amide
As for B2, in test [1], the affinity corresponds to a Ki of 0.0626 nM.

B3: Example 77 (peptide)
peptide: YXEGTXISDYSIXLDXKHQXDFVEXLLETGPSSGAPPPS
modifications: Aib2; Iva6; αMeL13; Orn16; K17((2-[2-(2-Amino-ethoxy)-ethoxy]-acetyl)2-(γ-Glu)-CO-(CH2)18-CO2H); Aib20; 4-Pal25; C-terminal amide
Turning to B3, in test [1], the Ki (commonly a dissociation constant, usually derived from enzyme kinetics or from competition with a known ligand) turned out to be 0.0841 nM.

B4: Example 15 (peptide)
peptide: Y[dA]EGTFISDYSILLDKK([AEEA-AEEA-γGlu-C20 diacid])HQQDFVNYLLAQGPSSGAPPPS-NH2
modifications: N-terminus assumed
SMILES: CC[C@H](C)[C@H](NC(=O)[C@H](CO)NC(=O)[C@H](Cc1ccc(O)cc1)NC(=O)[C@H](CC(=O)O)NC(=O)[C@H](CO)NC(=O)[C@@H](NC(=O)[C@H](Cc1ccccc1)NC(=O)[C@@H](NC(=O)CNC(=O)[C@H](CCC(=O)O)NC(=O)[C@@H](C)NC(=O)[C@@H](N)Cc1ccc(O)cc1)[C@@H](C)O)[C@@H](C)CC)C(=O)N[C@@H](CC(C)C)C(=O)N[C@@H](CC(C)C)C(=O)N[C@@H](CC(=O)O)C(=O)N[C@@H](CCCCN)C(=O)N[C@@H](CCCCNC(=O)COCCOCCNC(=O)COCCOCCNC(=O)CC[C@H](NC(=O)CCCCCCCCCCCCCCCCCCC(=O)O)C(=O)O)C(=O)N[C@@H](Cc1c[nH]cn1)C(=O)N[C@@H](CCC(N)=O)C(=O)N[C@@H](CCC(N)=O)C(=O)N[C@@H](CC(=O)O)C(=O)N[C@@H](Cc1ccccc1)C(=O)N[C@H](C(=O)N[C@@H](CC(N)=O)C(=O)N[C@@H](Cc1ccc(O)cc1)C(=O)N[C@@H](CC(C)C)C(=O)N[C@@H](CC(C)C)C(=O)N[C@@H](C)C(=O)N[C@@H](CCC(N)=O)C(=O)NCC(=O)N1CCC[C@H]1C(=O)N[C@@H](CO)C(=O)N[C@@H](CO)C(=O)NCC(=O)N[C@@H](C)C(=O)N1CCC[C@H]1C(=O)N1CCC[C@H]1C(=O)N1CCC[C@H]1C(=O)N[C@@H](CO)C(N)=O)C(C)C
In the case of B4, affinity in test [1] was put at a Ki of 0.471 nM.

B5: Example 80 (peptide)
peptide: Y[Aib]EGTFISDYSI[αMeL]LD[Orn]K([AEEA-AEEA-γGlu-C20 diacid])HQ[Aib]DFVE[4Pal]LLETGPSSGAPPPS-NH2
modifications: N-terminus assumed
SMILES: CC[C@H](C)[C@H](NC(=O)[C@H](Cc1ccccc1)NC(=O)[C@@H](NC(=O)CNC(=O)[C@H](CCC(=O)O)NC(=O)C(C)(C)NC(=O)[C@@H](N)Cc1ccc(O)cc1)[C@@H](C)O)C(=O)N[C@@H](CO)C(=O)N[C@@H](CC(=O)O)C(=O)N[C@@H](Cc1ccc(O)cc1)C(=O)N[C@@H](CO)C(=O)N[C@H](C(=O)N[C@@](C)(CC(C)C)C(=O)N[C@@H](CC(C)C)C(=O)N[C@@H](CC(=O)O)C(=O)N[C@@H](CCCN)C(=O)N[C@@H](CCCCNC(=O)COCCOCCNC(=O)COCCOCCNC(=O)CC[C@H](NC(=O)CCCCCCCCCCCCCCCCCCC(=O)O)C(=O)O)C(=O)N[C@@H](Cc1c[nH]cn1)C(=O)N[C@@H](CCC(N)=O)C(=O)NC(C)(C)C(=O)N[C@@H](CC(=O)O)C(=O)N[C@@H](Cc1ccccc1)C(=O)N[C@H](C(=O)N[C@@H](CCC(=O)O)C(=O)N[C@@H](Cc1ccncc1)C(=O)N[C@@H](CC(C)C)C(=O)N[C@@H](CC(C)C)C(=O)N[C@@H](CCC(=O)O)C(=O)N[C@H](C(=O)NCC(=O)N1CCC[C@H]1C(=O)N[C@@H](CO)C(=O)N[C@@H](CO)C(=O)NCC(=O)N[C@@H](C)C(=O)N1CCC[C@H]1C(=O)N1CCC[C@H]1C(=O)N1CCC[C@H]1C(=O)N[C@@H](CO)C(N)=O)[C@@H](C)O)C(C)C)[C@@H](C)CC
B5 showed a Ki in test [1] of 0.0828 nM.

B6: Example 9 (peptide)
peptide: YXEGTFISDYSILLDKKHQXDFVNWLLAQGPSSGAPPPS
modifications: D-Ala2; K17((2-[2-(2-Amino-ethoxy)-ethoxy]-acetyl)2-(γ-Glu)-CO-(CH2)18-CO2H); Aib20; C-terminal amide
On to B6, for which the Ki in test [2] stood at 168 nM; in test [1] it was 0.11 nM.

B7: Example 32 (peptide)
peptide: Y[dA]EGTLISDYSILLDKK([AEEA-AEEA-γGlu-C18 diacid])AQ[Aib]DFVNWLLAQGPSSGAPPPS-NH2
modifications: N-terminus assumed
SMILES: CC[C@H](C)[C@H](NC(=O)[C@H](CO)NC(=O)[C@H](Cc1ccc(O)cc1)NC(=O)[C@H](CC(=O)O)NC(=O)[C@H](CO)NC(=O)[C@@H](NC(=O)[C@H](CC(C)C)NC(=O)[C@@H](NC(=O)CNC(=O)[C@H](CCC(=O)O)NC(=O)[C@@H](C)NC(=O)[C@@H](N)Cc1ccc(O)cc1)[C@@H](C)O)[C@@H](C)CC)C(=O)N[C@@H](CC(C)C)C(=O)N[C@@H](CC(C)C)C(=O)N[C@@H](CC(=O)O)C(=O)N[C@@H](CCCCN)C(=O)N[C@@H](CCCCNC(=O)COCCOCCNC(=O)COCCOCCNC(=O)CC[C@H](NC(=O)CCCCCCCCCCCCCCCCC(=O)O)C(=O)O)C(=O)N[C@@H](C)C(=O)N[C@@H](CCC(N)=O)C(=O)NC(C)(C)C(=O)N[C@@H](CC(=O)O)C(=O)N[C@@H](Cc1ccccc1)C(=O)N[C@H](C(=O)N[C@@H](CC(N)=O)C(=O)N[C@@H](Cc1c[nH]c2ccccc12)C(=O)N[C@@H](CC(C)C)C(=O)N[C@@H](CC(C)C)C(=O)N[C@@H](C)C(=O)N[C@@H](CCC(N)=O)C(=O)NCC(=O)N1CCC[C@H]1C(=O)N[C@@H](CO)C(=O)N[C@@H](CO)C(=O)NCC(=O)N[C@@H](C)C(=O)N1CCC[C@H]1C(=O)N1CCC[C@H]1C(=O)N1CCC[C@H]1C(=O)N[C@@H](CO)C(N)=O)C(C)C
Take B7: the results for the Ki in test [2] and in test [1] were 85.2 nM and 0.0343 nM, respectively.

B8: Example 31 (peptide)
peptide: Y[Aib]EGTFISDYSILLDKK([AEEA-AEEA-γGlu-C18 diacid])HQ[Aib]DFVNYLLAAGPSSGAPPPS-NH2
modifications: N-terminus assumed
SMILES: CC[C@H](C)[C@H](NC(=O)[C@H](CO)NC(=O)[C@H](Cc1ccc(O)cc1)NC(=O)[C@H](CC(=O)O)NC(=O)[C@H](CO)NC(=O)[C@@H](NC(=O)[C@H](Cc1ccccc1)NC(=O)[C@@H](NC(=O)CNC(=O)[C@H](CCC(=O)O)NC(=O)C(C)(C)NC(=O)[C@@H](N)Cc1ccc(O)cc1)[C@@H](C)O)[C@@H](C)CC)C(=O)N[C@@H](CC(C)C)C(=O)N[C@@H](CC(C)C)C(=O)N[C@@H](CC(=O)O)C(=O)N[C@@H](CCCCN)C(=O)N[C@@H](CCCCNC(=O)COCCOCCNC(=O)COCCOCCNC(=O)CC[C@H](NC(=O)CCCCCCCCCCCCCCCCC(=O)O)C(=O)O)C(=O)N[C@@H](Cc1c[nH]cn1)C(=O)N[C@@H](CCC(N)=O)C(=O)NC(C)(C)C(=O)N[C@@H](CC(=O)O)C(=O)N[C@@H](Cc1ccccc1)C(=O)N[C@H](C(=O)N[C@@H](CC(N)=O)C(=O)N[C@@H](Cc1ccc(O)cc1)C(=O)N[C@@H](CC(C)C)C(=O)N[C@@H](CC(C)C)C(=O)N[C@@H](C)C(=O)N[C@@H](C)C(=O)NCC(=O)N1CCC[C@H]1C(=O)N[C@@H](CO)C(=O)N[C@@H](CO)C(=O)NCC(=O)N[C@@H](C)C(=O)N1CCC[C@H]1C(=O)N1CCC[C@H]1C(=O)N1CCC[C@H]1C(=O)N[C@@H](CO)C(N)=O)C(C)C
As to B8, the Ki in test [2] was found to be 266 nM; in test [1], 0.0473 nM.
